The target of this assay is PDI C56A-FLAG (human) (UniProt P07237). The assay is described as follows: co-IP.
UniProt P07237, sequence (P07237 18-508 C56A): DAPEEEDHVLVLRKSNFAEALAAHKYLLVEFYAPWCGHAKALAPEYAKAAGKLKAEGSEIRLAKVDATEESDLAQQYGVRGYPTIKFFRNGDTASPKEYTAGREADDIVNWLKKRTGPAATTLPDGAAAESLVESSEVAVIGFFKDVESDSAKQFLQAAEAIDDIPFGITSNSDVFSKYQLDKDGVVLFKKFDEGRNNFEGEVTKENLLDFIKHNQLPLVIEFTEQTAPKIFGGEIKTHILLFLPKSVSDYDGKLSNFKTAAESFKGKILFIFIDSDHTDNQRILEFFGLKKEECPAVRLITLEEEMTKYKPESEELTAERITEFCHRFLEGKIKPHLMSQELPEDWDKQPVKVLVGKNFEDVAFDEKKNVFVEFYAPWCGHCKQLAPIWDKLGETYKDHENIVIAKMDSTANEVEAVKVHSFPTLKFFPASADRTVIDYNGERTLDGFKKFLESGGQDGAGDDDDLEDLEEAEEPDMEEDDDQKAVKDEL

With “Myc-epitope-tagged human C(A7)Y Akita mutant proinsulin (natural protein)”, the stoichiometry N (proinsulin per PDI) was determined as 1.

The values above are taken from paper PMC4591687.
